# Assays:
# [1] = biological target: unlabeled anti-CD4 (RPA-T4 clone, BD Biosciences) raised in mouse against the human antigen; test: flow cytometry on Cyto-trol cells pre-labeled with mouse anti-CD4 primary (Example 36, FIG. 20B)
# Mouse IgG [2] = test: Luminex xMap bead sandwich assay, mouse IgG titration, detection with streptavidin-conjugated polymer
# Mouse IgG [3] = test: Luminex xMap bead sandwich assay, mouse IgG titration, detection with streptavidin-phycoerythrin at 4 ug/mL
"stain index, fold over a Pacific Blue control conjugate of the same antibody [1] [fold]",MFI/zero (fluorescence highest point in standard curve/fluorescence zero concentration of analyte) (Mouse IgG [2]),MFI/zero (fluorescence highest point in standard curve/fluorescence zero concentration of analyte) (Mouse IgG [3]),Substance
> 4,,,405 polymer-goat anti-mouse conjugate (amine-functionalized 405 polymer conjugated to goat anti-mouse IgG purified antibody)
,26.6,21.8,Donkey anti-mouse IgG antibody covalently conjugated to xMap beads
